The values that follow come from patent publication US20230192839A1, “ANTIBODIES HAVING CONDITIONAL AFFINITY AND METHODS OF USE THEREOF” (PFIZER INC., priority 2017, published 2023).

For one assay, the system named is human CD33. Nature of the assay: Biacore SPR binding kinetics of anti-CD33 scFv-Fc clones with or without 10 µM MTX. The conditions noted are these: CD33, 37° C., pH 7.4, scFv-Fc. From the text:
The first 4 rounds of panning used biotinylated CD33 antigen captured on streptavidin or neutravidin coated 96-well plates. […] 1536 clones were randomly chosen from the 4th and 5th round of panning against the CD33 antigen and their binding specificity determined by phage ELISA. Clones that specifically bound to CD33 were sequenced and all unique clones were subjected to a phage competition ELISA to assess their relative affinities to CD33 and sensitivity to MTX by measuring their binding strengths in the presence or absence of 10 µM (micromolar) MTX (i.e. in 0 or 10 µM MTX).
(§1) All binding kinetics analysis was performed on label-free Biacore surface plasmon biosensors (Biacore T200™ from GE Life Sciences) at 37° C. in 10 mM Hepes pH 7.4, 150 mM NaCl, 0.05% Tween-20 (HBST+), with or without 10 µM MTX. The Biacore data were processed in Biacore T200 Evaluation Software, and the data were double-referenced (Myszka, 1999, J Mol Recognit 12(5):279-284) and fit globally to a simple Langmuir with mass transport model to determine the equilibrium dissociation constant, KD, from the ratio of the kinetic rate constants (KD = koff/kon). In some cases the binding of antigen was very low (or not detectable) in the presence of 10 µM MTX and as a result kinetic rate constants could not be accurately determined. In these cases, a KD (or KD limit) was estimated based on the binding response at the highest analyte concentration tested or based on the typical limit of detection for a Biacore T200.

The subject of a further assay is MV4-11 cells. Nature of the assay: Sequential rounds of in vitro cytotoxicity assays with changing MTX concentration (reversible inhibition). In kind it is cell-based, human. The conditions noted are these: Round 0-1 no MTX, then 100 µM MTX at Round 1-2 and Round 2-3; FIGS. 9A and 9B. On the procedure:
The anti-CD33 clones tested in this example were: P03_A01, P07_C04, and P02_D09. In addition, a tool T cell was prepared as described in Example 4, as were untransduced T cells. Also, each of the different conditional CAR T cells described above was generated in triplicate from PBMC cells from three different human donors. The target cell line used in this assay was MV4-11; these cells were transduced to stably express GFP and firefly luciferase, as described in Example 5.
This experiment involved a series of in vitro cytotoxicity assays, in which co-cultures of T cells and MV4-11 target cells were incubated together for multiple rounds of sequential cytotoxicity assays, in which the MTX concentration changed at different rounds of the assays. In vitro cytotoxicity assays were carried out in 24-well plates by co-culturing 200,000 T cells with 200,000 MV4-11 cells, for each different T cells described above. In addition, each of the co-cultures contained either 100 µM MTX or 0 µM MTX at different times, as indicated by the schematics in FIGS. 9A and 9C. In both conditions, 1 mM leucovorin was supplemented to circumvent MTX toxicity. For each round of the assay, co-cultures were maintained in a final volume of 500 µl of RPMI 1640 medium at 37 C with 5% CO2 for 48 hours. At the end of each round, cells were spun down (250 × g, 10 minutes), supernatant was removed, and fresh media containing fresh MV4-11 cells, leucovorin, and optionally MTX were added according to the schematics shown in FIGS. 9A and 9C. Target cell killing was assessed and plotted as described in Example 4.
In comparing the different panels of FIGS. 9A-9D, note that the schematics shown in FIGS. 9A and 9C indicate the MTX concentration in the co-culture at the start of the assay for a given round, whereas the results from that assay are shown the next round number in FIGS. 9B and 9D, respectively. […]

In assay [1] the test system is human epidermal growth factor receptor (EGFR). Nature of the assay: Biacore SPR binding kinetics of anti-EGFR scFv-Fc clones with or without 10 µM MTX. The conditions noted are these: 37° C. How it is done: as §1, with “T200. […]” for “T200.”
(Surface plasmon resonance follows binding to a sensor surface in real time, without labels.)

B1: P07_C04: anti-CD33 clone with conditional affinity; VH SEQ ID NO: 25, VL SEQ ID NO: 26; also as scFv in CAR (antibody, V domains shown)
VH: QVQLVESGGGLVQAGGSLRLSCAASRRSSRSWAMHWVRQAPGKGLEWVAVISYDGRLKYYADSVKGRFTISRDNAEYLVYLQMNSLRAEDTAVYYCAAEPDGEGTNGGLDIWGQGTLVTVSS
VL: DIQMTQSPSSLSASVGDRVTITCRASQNISRYLNWYQQKPGKAPKLLIYSASSLQTGVPSRFSGSGSGTDFTLTISSLQPEDFATYYCQQSYSSGAFGQGTKVEIK
modifications: Synthetic Antibody
notes: also as scFv in CAR
Turning to B1, in the assay on human CD33, the “koff, kinetics toward antigen with 0 µM MTX” value (“koff … with 0 µM MTX” for short) was 0.0029 s⁻¹ and the “kon, kinetics toward antigen with 0 µM MTX” value (shortened to “kon … with 0 µM MTX”) is 95000 M⁻¹ s⁻¹. In addition, in the assay on human CD33 (10 µM MTX), the “koff, kinetics toward antigen with 10 µM MTX” value came to 0.025 s⁻¹ and the “kon, kinetics toward antigen with 10 µM MTX” value was 170000 M⁻¹ s⁻¹. In the assay on MV4-11 cells, the “target cell killing when MTX is added to active CAR T cells ("on" to "off")” value is on record as “quick inhibition rates”.

B2: P03_A01: anti-CD33 clone with conditional affinity; VH SEQ ID NO: 19, VL SEQ ID NO: 20; also as scFv in CAR (antibody, V domains shown)
VH: QVQLVESGGGLVQAGGSLRLSCAASRRSSRSWAMHWVRQAPGKGLEWVAVISYDGRLKYYADSVKGRFTISRDNAEYLVYLQMNSLRAEDTAVYYCAAETGSVGLDYWGQGTLVTVSS
VL: DIQMTQSPSSLSASVGDRVTITCRASQGISTYLNWYQQKPGKAPKLLIYGATSLESGVPSRFSGSGSGTDFTLTISSLQPEDFATYYCQQGYSQGTFGQGTKVEIK
modifications: Synthetic Antibody
notes: also as scFv in CAR
B2: in the assay with human CD33, the “koff … with 0 µM MTX” value turned out to be 0.0057 s⁻¹ and the “kon … with 0 µM MTX” value came out at 50000 M⁻¹ s⁻¹. Moreover, the “target cell killing when MTX is added to active CAR T cells ("on" to "off")” value in the assay on MV4-11 cells is reported as “requires two rounds of MTX to be fully inhibited”.

B3: P01_F02: anti-EGFR clone with conditional affinity; VH SEQ ID NO: 119, VL SEQ ID NO: 120; also as scFv in CAR (antibody, V domains shown)
VH: QVQLVESGGGLVQAGGSLRLSCAASRRSSRSWAMHWVRQAPGKGLEWVAVISYDGRLKYYADSVKGRFTISRDNAEYLVYLQMNSLRAEDTAVYYCAADVESALAYGEPYHHMDVWGQGTLVTVSS
VL: QSVLTQPPSASGTPGQRVTISCSGSSSNIGRNYVYWYQQLPGTAPKLLIYRTSQRPSGVPDRFSGSKSGTSASLAISGLRSEDEADYYCATWDDSLSGWVFGTGTKLTVL
modifications: Synthetic Antibody
notes: also as scFv in CAR
Turning to B3, in assay [1] (0 µM MTX, pH 7.4, scFv-Fc), the “koff … with 0 µM MTX” value was 0.011 s⁻¹ and the “kon … with 0 µM MTX” value came out at 61000 M⁻¹ s⁻¹. The Kd in assay [1] (10 µM MTX, pH 7.4, koff/kon, or estimated from binding response / limit of detection for weak interactions, read-out: KD, kinetics toward antigen with 10 µM MTX) was over 9.41 µM.

What is called Kd is the free concentration of one partner at which half of the binding sites on the other are occupied at equilibrium, for simple one-to-one binding.
